Measurements: PMC11662665, “Phosphorylation-mediated disassembly of C-terminal binding protein 2 tetramer impedes epigenetic silencing of pluripotency in mouse embryonic stem cells” (Nucleic Acids Research, 2024)

Legend:
[1] = molecular target: the molecule itself; test: pull-down; 1 ug GST-tagged and 1 ug His6-tagged recombinant Ctbp2, pulled down with GSH beads; 25 mM Tris-Cl pH 7.5, 0.1% NP-40, 150 mM NaCl, NADH, BSA, 10% glycerol, 4 C; for the phosphorylated form after in vitro phosphorylation with HA-Chk2
GST-CTBP2 = molecular target: T1, GST-CTBP2 (UniProt P56546 1-445); test: pull-down; recombinant truncated FLAG-Suz12 and GST-CTBP2 incubated in vitro; pull down with glutathione Sepharose; conditions: both partners purified
T1 construct: also called GST-tagged Ctbp2; source: E. coli BL21 DE3 pLysS, purified (glutathione Sepharose 4B)
T1 sequence (P56546 whole entry, the tested form may be a part): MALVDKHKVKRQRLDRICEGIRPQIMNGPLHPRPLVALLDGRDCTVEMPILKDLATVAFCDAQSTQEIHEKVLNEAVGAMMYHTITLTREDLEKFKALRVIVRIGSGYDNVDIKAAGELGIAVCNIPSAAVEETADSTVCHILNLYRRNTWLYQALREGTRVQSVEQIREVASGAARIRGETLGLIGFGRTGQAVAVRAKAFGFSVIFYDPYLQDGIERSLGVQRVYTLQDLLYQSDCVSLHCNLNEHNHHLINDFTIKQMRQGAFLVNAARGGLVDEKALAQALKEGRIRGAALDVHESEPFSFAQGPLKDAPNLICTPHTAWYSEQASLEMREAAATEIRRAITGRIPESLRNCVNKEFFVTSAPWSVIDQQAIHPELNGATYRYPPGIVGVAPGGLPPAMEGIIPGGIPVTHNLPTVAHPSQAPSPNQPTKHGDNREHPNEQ

| Binder | binding result [1] | binding result (GST-CTBP2) |
| --- | --- | --- |
| GST- or His6-tagged recombinant CTBP2, wild type (the two copies of the in vitro self-binding assay) (natural protein, Two differently tagged copies of one protein; each copy carries one tag; The same constructs stand singly as m31 (His6) and m33 (GST); also called recombinant wild-type Ctbp2; source: E. coli BL21 DE3 pLysS, purified (glutathione Sepharose 4B or Ni-NTA agarose)) not shown | binds |  |
| FLAG-Suz12 1–138 (recombinant truncated Suz12, N-terminal region) (domain or fragment, human, UniProt Q15022 1-138, looked up, the methods call the cloned PRC2 components human) MAPQKHGGGGGGGSGPSAGSGGGGFGGSAAVAAATASGGKSGGGSCGGGGSYSASSSSSAAAAAGAAVLPVKKPKMEHVQADHELFLQAFEKPTQIYRFLRTRNLIAPIFLHRTLTYMSHRNSRTNIKRKTFKVDDML |  | binds |
